Measured values: patent publication US12686712B2, “Antibody, related use, pharmaceutical composition including method for diagnosing fungal infections, fungal infection diagnosis kit and method for treating fungal infections” (priority 2020, dated 2026)

Assays:
C. neoformans (H99) = assay: Indirect ELISA against intact cells using poly-L-Lysine (PL); format: binding, Cryptococcus neoformans; conditions: 10^4 and 10^5 cells/ml
Experimental: For this test, C. neoformans (H99), Candida albicans, Giardia lamblia, human lung line cell A549 (ATCC), Escherichia coli and Staphylococcus aureus. Cells were washed in PBS three times and suspended at 10^7 cell/ml density in poly-L-Lysine (5 μg/ml in PBS) for adherence at night at 4° C. The next day, plates were blocked with PBS/BSA 5% and incubated for 1 hour at 37° C., then they are incubated for 1 hour at 37° C. with anti-chitooligomer AcM at 50 μg/ml concentration and diluted at 5 μg/ml. Then, washing with PBS/Tween 0.05% was performed for 3 times and anti-IgM murine peroxidase was added diluted 1:5000 and incubated for 2 hours at 37° C. Plates were washed again and TMB was added and incubated for 30 minutes at 37° C.
Reaction was stopped with HCl 1 N and reading with spectrophotometer at 450 nm. After this trial, seriated dilutions were performed at density of cells 10^7 until 10 cells/ml to fungi and 10^7 until 10^4 cells/ml to other cellular types and tested of AcM anti-chitooligomer at 25 μg/ml concentration, followed by the same procedures abovementioned. […]
In this trial, 10^7 cell/ml of C. albicans were used to perform an absorbance curve, in which it was observed that there was a 25 μg/ml concentration reliable signal of both AcM, as above such value the curve starts to enter in plateau, as provided in FIG. 9. […]

C. neoformans = assay: Melanization trial (L-DOPA); format: cell-based, Cryptococcus neoformans; conditions: concentrations lower than 6.2 μg/ml; p>0.05
Experimental: C. neoformans cultivation was performed as paragraph and cellular suspension (1×10^6 cells/ml) was cultivated for 72 hours in minimum media supplemented with 1 mM of L-DOPA in 96-well plate of U-shape bottom. Antibodies HC6/DD11 and AF1/CC5 were added to minimum media within 25 to 0.05 μg/ml concentration range. The plate was centrifuged and pigment development quantification was defined densitometrically upon image scanning by iBright FL1000 Invitrogen equipment.
AcM HC6/DD11 e AF1/CC5 established concentrations were 0.2 to 25 μg/ml. L-DOPA was used with substrate to melanization.
Pigmentation in C. neoformans was assessed through brown to black sedimentation observation in 96-well plate bottom. To document pigmentation or inhibition, plates were photographed over white surfaces (clear bottom), to enable differentiation between pigmented and non-pigmented populations. It shall be noted that every AcM dose presents fungal growth, however with negative pigmentation or partial inhibition.

C. neoformans H99 = assay: Biofilm development, XTT reduction trial; format: cell-based, Cryptococcus neoformans; conditions: AcM 25 μg/ml, 48 hours at 37° C., vs fungus without treatment, p<0.05
Experimental: C. neoformans (H99 and Cap67) and Candida albicans were cultivated in Sabouraud media for 24 hours at 30° C. Cellular suspensions were centrifuged for 5 minutes at 3000 g, washed 3 times in PBC and suspended in minimum media (20 mg/ml thiamin, 30 mm glucose, 26 mM glycine, 20 mM MgSO4, and 58.8 mM KH2PO4). Then, they were added to 96-well plates (100 μl/well—1×10^6 células/ml) and cultivated for 48 hours at 37° C. at presence of AcM (HC6/DD11 and AF1/CC5) and AcM anti-GXM 18B7 (only to H99) at 25 μg/ml concentration, keeping under agitation for 30 minutes, for AcM total homogenization with fungi. As control, drug AmB was used at 1 μg/ml concentration.
Two analysis systems were performed: in the first, cells were washed, so that non-adhering cells were removed and only cells bonded to biofilm under development remained; in the second system, cells were not washed and all cells adhered or not to substrate were quantified.
Viable cell metabolic activity in both trials was assessed by the method based on decrease of XTT (2-methoxy-4-nitro-5-sulfophenyl)-5-[(phenylamino) carbonyl]-2H-tetrazolium hydroxide) in spectrophotometer at 492 nm of wavelength.
AcMs were tested (25 μg/ml) against three fungus species (C. albicans, C. neoformans—H99—and acapsular mutant of C. neoformans—Cap67), with control by AcM anti-GXM 18B7 (25 μg/ml) only to H99. In the first assay (FIGS. 14A and B), cellular suspensions were washed to remove non-adhering cells to substrate. […] In second assay (FIGS. 14C and D), cellular suspensions were not washed, and again AcM inhibited biofilm development (p<0.05) compared to cell not treated with antibodies. In both assays, cell growth was observed.
AcMs were compared to AcM anti-GXM 18B7 concerning biofilm development inhibition.

Candida albicans = assay: Immunofluorescence of AcM anti-chitooligomer against intact cells; format: binding; conditions: AcM 25 μg/mL, 1 h at 37° C.; anti-IgM Alexa 568; calcofluor
Experimental: Fungal cells (10^6 cells)) were fastened (cacodylate paraformolaldehyde buffer 4%; 30 min) and blocked later (PBS/BSA 1%; 1 hour). Then, they were incubated with AcM anti-chitooligomer(25 μg/mL; 1 h at 37° C.) After washing with PBS, cells were incubated with mouse anti-IgM antibody conjugated at Alexa 568 (SIGMA; 1:1000). After PBS washing, cells were incubated with 25 μM of white calcofluor (Invitrogen) and washed again. Cellular suspensions were assembled in glass blades and assessed under microscope Olympus AX70, coupled to camera system (QImaging Retiga 1300) and assessed in QCapture suite V2.46 software.
From reliable and ELISA and Dot Blot trials, biological activity validation tests. Thus, AcMs were used through immunofluorescence (IF), using the pathogen Candida albicans as template. AcMs were efficient at fungal cellular wall labeling, showing the same profile whenever standard marker is used (lectin), data not provided.

B1: HC6/DD11: murine IgM monoclonal antibody against chitooligomers (chitotriose); VH SEQ ID NO: 15, VL SEQ ID NO: 16 (antibody, listed as Mus musculus, V domains shown)
VH: STGQVKLEESGGGLVQPGGSRKLSCAASGFTFSDYGMAWVRQAPGKGPEWVAFISNLAYSIYYADTVTGRFTISRENAKNTLYLEMSSLRSEDTAMYYCARDYYGSSYWYFDVWGAGTTVTAPC
VL: ATNSCISRGEVTITCSASSSVSYMHWFQQKPGTSPKLWIYSTSNLASGVPARFSGSGSGTSYSLTISRMEAEDAATYYCQQRSSYPLTFGAGTKLELKRADAAPTVSLET
With B1 the “ELISA signal in cell saturation curve” value (C. neoformans (H99)) was “slightly more sensitive”, the “melanization in lower concentrations” value (C. neoformans) was “not significant inhibition” and the “biofilm development (XTT reduction)” value (C. neoformans H99; non-washed cells) was “reduced biofilm development significantly”. For the same molecule, the “biofilm development (XTT reduction)” value (C. neoformans H99; washed cells) was “reduced biofilm development significantly” and the “fungal cellular wall labeling by immunofluorescence” value (Candida albicans) was “characteristic polar label”.
